{"source": "patent US20240279356A1", "about": "(Xencor, published 2024)", "key": {"human MSLN antigen": {"target": "T1, human MSLN antigen (human, UniProt Q13421 296-580, limits assumed)", "T1 construct": "Soluble antigen for BLI; also called Mesothelin; MESO", "T1 sequence (Q13421 other isoform, or with tags, fused parts or gaps limits assumed)": "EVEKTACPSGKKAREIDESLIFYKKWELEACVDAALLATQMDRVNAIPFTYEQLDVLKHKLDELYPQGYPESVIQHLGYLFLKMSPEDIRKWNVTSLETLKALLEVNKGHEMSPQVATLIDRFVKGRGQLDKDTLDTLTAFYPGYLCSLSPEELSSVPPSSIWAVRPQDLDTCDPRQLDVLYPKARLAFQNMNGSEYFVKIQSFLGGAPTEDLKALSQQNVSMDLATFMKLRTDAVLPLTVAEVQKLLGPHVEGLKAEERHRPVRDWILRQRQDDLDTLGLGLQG", "experiment": "Octet BLI; bsAb on anti-human Fc sensor, human MSLN as analyte, one concentration", "from_the_text": "Variants of MESO-C were engineered by introducing point substitutions into the variable heavy region (VH) and the variable light region (VL) to generate 11 VH variants and 16 VL variants (sequences for which are depicted in FIG. 18 as H1.1-H1.13 and in FIG. 19 as L1.1-L1.18). An additional 4 VL variants were generated by combining useful point substitutions (sequences for which are depicted in FIG. 19 as L1.19-L1.22). WT and variant variable heavy regions were paired with WT and variant variable light regions to generate variant variable regions (Fvs) which were produced in the context of anti-MSLN×anti-CD3 bispecific antibodies. The bispecific antibodies were screened for MSLN binding affinity using Octet®, a BioLayer Interferometry (BLI)-based method. Experimental steps for Octet® generally include the following: Immobilization (capture of ligand to a biosensor); Association (dipping of ligand-coated biosensors into wells containing the analyte); and Dissociation (returning of biosensors to well containing buffer). In an initial screening, anti-human Fc sensors were used to capture the bispecific mAbs and dipped into human MSLN antigen (one concentration to screen large library). The resulting dissociation constant of illustrative variants (KD), association rate (kₐ), dissociation rate (kd), as well as sensorgram response are depicted in FIG. 20. In further screening of favorite variants identified in the initial screen (and combination variants), bispecific mAbs were dipped into multiple concentrations of human MSLN antigen, data for which are depicted in FIG. 21 (from various screens)."}, "cyno MSLN": {"target": "T2, cyno MSLN (Macaca fascicularis (cynomolgus))", "T2 construct": "soluble antigen for Octet; also called cynomolgus MSLN", "experiment": "Octet BLI; bsAb on anti-human Fc sensor, cyno MSLN as analyte, one concentration"}}, "data": [{"binder": "XENP32557 (bispecific antibody, 1+1 Fab-scFv-Fc bsAb; VH T97S, VL WT (Kabat); also called MESO-C H1.8_L1) Fab-Fc heavy chain (anti-MSLN VH): QVQLVQSGAEVKKPGASVKVSCKASGYTFTSYWMHWVRQAPGQGLEWMGMIHPNSDNTIYYEKFQGRVTMTVDKSISTAYMELSRLRSDDTAVYYCAIIISPVVPKFDYWGQGTLVTVSSASTKGPSVFPLAPSSKSTSGGTAALGCLVKDYFPEPVTVSWNSGALTSGVHTFPAVLQSSGLYSLSSVVTVPSSSLGTQTYICNVNHKPSDTKVDKKVEPKSCDKTHTCPPCPAPPVAGPSVFLFPPKPKDTLMISRTPEVTCVVVDVKHEDPEVKFNWYVDGVEVHNAKTKPREEEYNSTYRVVSVLTVLHQDWLNGKEYKCKVSNKALPAPIEKTISKAKGQPREPQVYTLPPSREEMTKNQVSLTCDVSGFYPSDIAVEWESDGQPENNYKTTPPVLDSDGSFFLYSKLTVDKSRWEQGDVFSCSVMHEALHNHYTQKSLSLSPGK scFv-Fc heavy chain (anti-CD3 H1.30_L1.47): not shown light chain (anti-MSLN VL): DIVMTQSPDSLAVSLGERATINCKASHDVGTSVAWYQQKPGQSPKLLIYWASTRHTGVPDRFTGSGSGTDFTLTISSLQAEDVAVYFCQQYSSYPLTFGAGTKLEIKRTVAAPSVFIFPPSDEQLKSGTASVVCLLNNFYPREAKVQWKVDNALQSGNSQESVTEQDSKDSTYSLSSTLTLSKADYEKHKVYACEVTHQGLSSPVTKSFNRGEC", "values": [{"measurement": "Kd", "setting": "human MSLN antigen", "result": 0.721, "unit": "nM"}, {"measurement": "Response", "setting": "human MSLN antigen", "result": 1.15}, {"measurement": "koff", "setting": "human MSLN antigen", "result": 0.000374, "unit": "s⁻¹"}, {"measurement": "kon", "setting": "human MSLN antigen", "result": 519000, "unit": "M⁻¹ s⁻¹"}, {"measurement": "Kd", "setting": "cyno MSLN", "result": 0.62, "unit": "nM"}, {"measurement": "Response", "setting": "cyno MSLN", "result": 1.09}, {"measurement": "koff", "setting": "cyno MSLN", "result": 0.000321, "unit": "s⁻¹"}, {"measurement": "kon", "setting": "cyno MSLN", "result": 518000, "unit": "M⁻¹ s⁻¹"}]}, {"binder": "XENP32558 (bispecific antibody, 1+1 Fab-scFv-Fc bsAb; VH K100bR, VL WT (Kabat); also called MESO-C H1.9_L1) Fab-Fc heavy chain (anti-MSLN VH): QVQLVQSGAEVKKPGASVKVSCKASGYTFTSYWMHWVRQAPGQGLEWMGMIHPNSDNTIYYEKFQGRVTMTVDKSISTAYMELSRLRSDDTAVYYCAIIITPVVPRFDYWGQGTLVTVSSASTKGPSVFPLAPSSKSTSGGTAALGCLVKDYFPEPVTVSWNSGALTSGVHTFPAVLQSSGLYSLSSVVTVPSSSLGTQTYICNVNHKPSDTKVDKKVEPKSCDKTHTCPPCPAPPVAGPSVFLFPPKPKDTLMISRTPEVTCVVVDVKHEDPEVKFNWYVDGVEVHNAKTKPREEEYNSTYRVVSVLTVLHQDWLNGKEYKCKVSNKALPAPIEKTISKAKGQPREPQVYTLPPSREEMTKNQVSLTCDVSGFYPSDIAVEWESDGQPENNYKTTPPVLDSDGSFFLYSKLTVDKSRWEQGDVFSCSVMHEALHNHYTQKSLSLSPGK scFv-Fc heavy chain (anti-CD3 H1.30_L1.47): not shown light chain (anti-MSLN VL): DIVMTQSPDSLAVSLGERATINCKASHDVGTSVAWYQQKPGQSPKLLIYWASTRHTGVPDRFTGSGSGTDFTLTISSLQAEDVAVYFCQQYSSYPLTFGAGTKLEIKRTVAAPSVFIFPPSDEQLKSGTASVVCLLNNFYPREAKVQWKVDNALQSGNSQESVTEQDSKDSTYSLSSTLTLSKADYEKHKVYACEVTHQGLSSPVTKSFNRGEC", "values": [{"measurement": "Kd", "setting": "human MSLN antigen", "result": 0.795, "unit": "nM"}, {"measurement": "Response", "setting": "human MSLN antigen", "result": 1.17}, {"measurement": "koff", "setting": "human MSLN antigen", "result": 0.000198, "unit": "s⁻¹"}, {"measurement": "kon", "setting": "human MSLN antigen", "result": 249000, "unit": "M⁻¹ s⁻¹"}, {"measurement": "Kd", "setting": "cyno MSLN", "result": 0.7, "unit": "nM"}, {"measurement": "Response", "setting": "cyno MSLN", "result": 1.11}, {"measurement": "koff", "setting": "cyno MSLN", "result": 0.000166, "unit": "s⁻¹"}, {"measurement": "kon", "setting": "cyno MSLN", "result": 238000, "unit": "M⁻¹ s⁻¹"}]}, {"binder": "XENP32559 (bispecific antibody, 1+1 Fab-scFv-Fc bsAb; VH WT, VL A25S (Kabat); also called MESO-C H1_L1.1) Fab-Fc heavy chain (anti-MSLN VH): QVQLVQSGAEVKKPGASVKVSCKASGYTFTSYWMHWVRQAPGQGLEWMGMIHPNSDNTIYYEKFQGRVTMTVDKSISTAYMELSRLRSDDTAVYYCAIIITPVVPKFDYWGQGTLVTVSSASTKGPSVFPLAPSSKSTSGGTAALGCLVKDYFPEPVTVSWNSGALTSGVHTFPAVLQSSGLYSLSSVVTVPSSSLGTQTYICNVNHKPSDTKVDKKVEPKSCDKTHTCPPCPAPPVAGPSVFLFPPKPKDTLMISRTPEVTCVVVDVKHEDPEVKFNWYVDGVEVHNAKTKPREEEYNSTYRVVSVLTVLHQDWLNGKEYKCKVSNKALPAPIEKTISKAKGQPREPQVYTLPPSREEMTKNQVSLTCDVSGFYPSDIAVEWESDGQPENNYKTTPPVLDSDGSFFLYSKLTVDKSRWEQGDVFSCSVMHEALHNHYTQKSLSLSPGK scFv-Fc heavy chain (anti-CD3 H1.30_L1.47): not shown light chain (anti-MSLN VL): DIVMTQSPDSLAVSLGERATINCKSSHDVGTSVAWYQQKPGQSPKLLIYWASTRHTGVPDRFTGSGSGTDFTLTISSLQAEDVAVYFCQQYSSYPLTFGAGTKLEIKRTVAAPSVFIFPPSDEQLKSGTASVVCLLNNFYPREAKVQWKVDNALQSGNSQESVTEQDSKDSTYSLSSTLTLSKADYEKHKVYACEVTHQGLSSPVTKSFNRGEC", "values": [{"measurement": "Kd", "setting": "human MSLN antigen", "result": 0.283, "unit": "nM"}, {"measurement": "Response", "setting": "human MSLN antigen", "result": 1.11}, {"measurement": "koff", "setting": "human MSLN antigen", "result": 0.000161, "unit": "s⁻¹"}, {"measurement": "kon", "setting": "human MSLN antigen", "result": 569000, "unit": "M⁻¹ s⁻¹"}, {"measurement": "Kd", "setting": "cyno MSLN", "result": 0.223, "unit": "nM"}, {"measurement": "Response", "setting": "cyno MSLN", "result": 1.04}, {"measurement": "koff", "setting": "cyno MSLN", "result": 0.000128, "unit": "s⁻¹"}, {"measurement": "kon", "setting": "cyno MSLN", "result": 575000, "unit": "M⁻¹ s⁻¹"}]}, {"binder": "XENP32560 (bispecific antibody, 1+1 Fab-scFv-Fc bsAb; VH WT, VL H27Q (Kabat); also called MESO-C H1_L1.2) Fab-Fc heavy chain (anti-MSLN VH): QVQLVQSGAEVKKPGASVKVSCKASGYTFTSYWMHWVRQAPGQGLEWMGMIHPNSDNTIYYEKFQGRVTMTVDKSISTAYMELSRLRSDDTAVYYCAIIITPVVPKFDYWGQGTLVTVSSASTKGPSVFPLAPSSKSTSGGTAALGCLVKDYFPEPVTVSWNSGALTSGVHTFPAVLQSSGLYSLSSVVTVPSSSLGTQTYICNVNHKPSDTKVDKKVEPKSCDKTHTCPPCPAPPVAGPSVFLFPPKPKDTLMISRTPEVTCVVVDVKHEDPEVKFNWYVDGVEVHNAKTKPREEEYNSTYRVVSVLTVLHQDWLNGKEYKCKVSNKALPAPIEKTISKAKGQPREPQVYTLPPSREEMTKNQVSLTCDVSGFYPSDIAVEWESDGQPENNYKTTPPVLDSDGSFFLYSKLTVDKSRWEQGDVFSCSVMHEALHNHYTQKSLSLSPGK scFv-Fc heavy chain (anti-CD3 H1.30_L1.47): not shown light chain (anti-MSLN VL): DIVMTQSPDSLAVSLGERATINCKASQDVGTSVAWYQQKPGQSPKLLIYWASTRHTGVPDRFTGSGSGTDFTLTISSLQAEDVAVYFCQQYSSYPLTFGAGTKLEIKRTVAAPSVFIFPPSDEQLKSGTASVVCLLNNFYPREAKVQWKVDNALQSGNSQESVTEQDSKDSTYSLSSTLTLSKADYEKHKVYACEVTHQGLSSPVTKSFNRGEC", "values": [{"measurement": "Kd", "setting": "human MSLN antigen", "result": 0.633, "unit": "nM"}, {"measurement": "Response", "setting": "human MSLN antigen", "result": 1.03}, {"measurement": "koff", "setting": "human MSLN antigen", "result": 0.000383, "unit": "s⁻¹"}, {"measurement": "kon", "setting": "human MSLN antigen", "result": 605000, "unit": "M⁻¹ s⁻¹"}, {"measurement": "Kd", "setting": "cyno MSLN", "result": 1.2, "unit": "nM"}, {"measurement": "Response", "setting": "cyno MSLN", "result": 0.948}, {"measurement": "koff", "setting": "cyno MSLN", "result": 0.000762, "unit": "s⁻¹"}, {"measurement": "kon", "setting": "cyno MSLN", "result": 634000, "unit": "M⁻¹ s⁻¹"}]}, {"binder": "XENP32564 (bispecific antibody, 1+1 Fab-scFv-Fc bsAb; VH WT, VL V33L (Kabat); also called MESO-C H1_L1.6) Fab-Fc heavy chain (anti-MSLN VH): QVQLVQSGAEVKKPGASVKVSCKASGYTFTSYWMHWVRQAPGQGLEWMGMIHPNSDNTIYYEKFQGRVTMTVDKSISTAYMELSRLRSDDTAVYYCAIIITPVVPKFDYWGQGTLVTVSSASTKGPSVFPLAPSSKSTSGGTAALGCLVKDYFPEPVTVSWNSGALTSGVHTFPAVLQSSGLYSLSSVVTVPSSSLGTQTYICNVNHKPSDTKVDKKVEPKSCDKTHTCPPCPAPPVAGPSVFLFPPKPKDTLMISRTPEVTCVVVDVKHEDPEVKFNWYVDGVEVHNAKTKPREEEYNSTYRVVSVLTVLHQDWLNGKEYKCKVSNKALPAPIEKTISKAKGQPREPQVYTLPPSREEMTKNQVSLTCDVSGFYPSDIAVEWESDGQPENNYKTTPPVLDSDGSFFLYSKLTVDKSRWEQGDVFSCSVMHEALHNHYTQKSLSLSPGK scFv-Fc heavy chain (anti-CD3 H1.30_L1.47): not shown light chain (anti-MSLN VL): DIVMTQSPDSLAVSLGERATINCKASHDVGTSLAWYQQKPGQSPKLLIYWASTRHTGVPDRFTGSGSGTDFTLTISSLQAEDVAVYFCQQYSSYPLTFGAGTKLEIKRTVAAPSVFIFPPSDEQLKSGTASVVCLLNNFYPREAKVQWKVDNALQSGNSQESVTEQDSKDSTYSLSSTLTLSKADYEKHKVYACEVTHQGLSSPVTKSFNRGEC", "values": [{"measurement": "Kd", "setting": "human MSLN antigen", "result": 0.0861, "unit": "nM"}, {"measurement": "Response", "setting": "human MSLN antigen", "result": 0.952}, {"measurement": "koff", "setting": "human MSLN antigen", "result": "5.68e-05", "unit": "s⁻¹"}, {"measurement": "kon", "setting": "human MSLN antigen", "result": 660000, "unit": "M⁻¹ s⁻¹"}, {"measurement": "Kd", "setting": "cyno MSLN", "result": 0.0297, "unit": "nM"}, {"measurement": "Response", "setting": "cyno MSLN", "result": 0.849}, {"measurement": "koff", "setting": "cyno MSLN", "result": "2.01e-05", "unit": "s⁻¹"}, {"measurement": "kon", "setting": "cyno MSLN", "result": 676000, "unit": "M⁻¹ s⁻¹"}]}]}
